Patent publication US20200299380A1 (published 2020)

T1: MICB-Fc (R&D Systems 1599-MB) (human, UniProt Q29980 23-298, limits assumed)
T1 construct: Bought; also called human MICB-Fc; not shown: Fc of the bought fusion protein
T1 sequence: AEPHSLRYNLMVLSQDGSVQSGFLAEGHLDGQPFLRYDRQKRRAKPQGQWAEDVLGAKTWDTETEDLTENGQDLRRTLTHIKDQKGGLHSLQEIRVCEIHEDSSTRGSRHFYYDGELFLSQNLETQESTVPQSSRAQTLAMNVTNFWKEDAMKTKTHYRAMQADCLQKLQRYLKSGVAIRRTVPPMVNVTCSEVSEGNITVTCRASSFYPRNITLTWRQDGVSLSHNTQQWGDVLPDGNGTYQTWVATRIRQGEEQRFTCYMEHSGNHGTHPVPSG

T2: MICA*007 expressed at the cell surface (human, UniProt Q29983 24-297)
T2 construct: also called C1R-MICA*007; C1R-MICA*07
T2 chain: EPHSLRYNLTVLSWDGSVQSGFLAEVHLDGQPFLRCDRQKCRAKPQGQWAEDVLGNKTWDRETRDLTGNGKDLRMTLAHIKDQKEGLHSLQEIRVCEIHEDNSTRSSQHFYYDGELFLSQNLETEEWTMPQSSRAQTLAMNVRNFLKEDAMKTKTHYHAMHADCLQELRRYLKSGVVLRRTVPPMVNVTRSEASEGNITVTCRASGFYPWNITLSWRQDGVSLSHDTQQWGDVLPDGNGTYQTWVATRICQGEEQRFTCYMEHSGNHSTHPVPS

T3: MICA*004 expressed at the cell surface (human, UniProt Q29983 24-297)
T3 construct: also called C1R-MICA*004; C1R-MICA*04
T3 chain: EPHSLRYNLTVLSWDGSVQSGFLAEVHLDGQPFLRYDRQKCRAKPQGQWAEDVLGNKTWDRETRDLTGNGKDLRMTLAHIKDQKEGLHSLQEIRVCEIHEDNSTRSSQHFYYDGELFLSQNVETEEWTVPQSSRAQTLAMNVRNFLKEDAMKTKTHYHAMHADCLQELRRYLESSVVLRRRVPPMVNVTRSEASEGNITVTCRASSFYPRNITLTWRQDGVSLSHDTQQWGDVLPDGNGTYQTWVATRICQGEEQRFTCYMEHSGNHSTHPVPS

T4: MICA*001 expressed at the cell surface (human, UniProt Q29983 24-297)
T4 construct: the protein on cells also has its transmembrane and cytoplasmic parts (Genbank AAB41060); also called C1R-MICA*001; C1R-MICA*01
T4 sequence: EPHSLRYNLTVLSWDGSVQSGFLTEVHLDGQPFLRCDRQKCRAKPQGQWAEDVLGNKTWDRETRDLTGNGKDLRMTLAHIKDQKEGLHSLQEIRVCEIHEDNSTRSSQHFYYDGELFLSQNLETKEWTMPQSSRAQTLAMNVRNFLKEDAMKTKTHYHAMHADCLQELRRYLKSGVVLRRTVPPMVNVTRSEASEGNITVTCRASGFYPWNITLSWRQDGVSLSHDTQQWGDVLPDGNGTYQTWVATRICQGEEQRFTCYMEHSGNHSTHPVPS

T5: MICA*008 expressed at the cell surface (human, UniProt Q29983 24-297)
T5 construct: also called C1R-MICA*008; C1R-MICA*08
T5 chain: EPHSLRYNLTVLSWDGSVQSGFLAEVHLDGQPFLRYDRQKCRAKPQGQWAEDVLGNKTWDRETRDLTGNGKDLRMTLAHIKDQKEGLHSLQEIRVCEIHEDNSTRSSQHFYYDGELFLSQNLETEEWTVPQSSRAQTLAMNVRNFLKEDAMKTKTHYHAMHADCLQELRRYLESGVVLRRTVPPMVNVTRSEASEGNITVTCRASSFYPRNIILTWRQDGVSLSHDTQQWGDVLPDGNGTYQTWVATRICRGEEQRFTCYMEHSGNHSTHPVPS

T6: MICA*001-BirA (human, UniProt Q29983 24-297)
T6 construct: also called MICA-BirA; MICA*01-BirA; not shown: BirA tag
T6 sequence: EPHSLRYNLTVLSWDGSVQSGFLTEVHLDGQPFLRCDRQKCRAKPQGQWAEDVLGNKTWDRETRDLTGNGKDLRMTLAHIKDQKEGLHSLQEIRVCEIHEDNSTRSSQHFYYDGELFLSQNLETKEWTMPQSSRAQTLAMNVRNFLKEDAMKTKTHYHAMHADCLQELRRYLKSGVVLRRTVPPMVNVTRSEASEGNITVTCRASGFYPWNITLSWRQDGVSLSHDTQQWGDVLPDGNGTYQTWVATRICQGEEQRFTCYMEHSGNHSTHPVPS

T7: human ULBP-2-Fc (R&D systems) (human, UniProt Q9BZM5 26-217, limits assumed)
T7 construct: Bought; not shown: Fc of the bought fusion protein
T7 sequence (looked up): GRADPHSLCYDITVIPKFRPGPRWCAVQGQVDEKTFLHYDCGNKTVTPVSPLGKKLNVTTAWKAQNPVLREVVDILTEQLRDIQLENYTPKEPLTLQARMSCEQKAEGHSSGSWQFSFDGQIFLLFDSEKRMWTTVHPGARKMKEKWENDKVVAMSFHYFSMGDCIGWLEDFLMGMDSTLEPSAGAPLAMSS

T8: human ULBP-1-Fc (R&D systems) (human, UniProt Q9BZM6 26-216, limits assumed)
T8 construct: Bought; not shown: Fc of the bought fusion protein
T8 sequence (looked up): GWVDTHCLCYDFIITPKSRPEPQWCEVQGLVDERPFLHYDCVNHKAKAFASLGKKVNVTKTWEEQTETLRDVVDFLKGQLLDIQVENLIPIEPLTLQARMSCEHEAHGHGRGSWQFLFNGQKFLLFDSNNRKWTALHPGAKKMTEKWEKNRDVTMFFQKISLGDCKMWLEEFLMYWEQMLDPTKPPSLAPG

T9: human ULBP-3-Fc (R&D systems) (human, UniProt Q9BZM4 30-217, limits assumed)
T9 construct: Bought; not shown: Fc of the bought fusion protein
T9 sequence (looked up): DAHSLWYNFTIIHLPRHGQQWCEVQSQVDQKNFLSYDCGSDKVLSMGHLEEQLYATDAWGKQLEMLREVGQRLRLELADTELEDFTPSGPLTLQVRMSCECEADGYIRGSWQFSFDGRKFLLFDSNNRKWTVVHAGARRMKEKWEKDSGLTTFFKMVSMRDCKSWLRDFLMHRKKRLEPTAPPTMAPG


Assays:
[1] = target: T1, MICB-Fc (R&D Systems 1599-MB); test: SPR, antibody at 10 µg/ml injected over immobilized MICB-Fc
Protocol: (§1) For cross-binding study, the human ULBP-1-Fc (R&D systems*), MICB-Fc (*), ULBP-2-Fc (*) and ULBP-3-Fc (*) recombinant proteins were covalently immobilized respectively on the flow cell one to four of a CM5 sensorchip. Anti-MICA antibodies (at a constant concentration of 10 μg/ml) were injected for 2 minutes at a flow rate of 10 μl/min onto the four flow cells in parallel. After each cycle, Sensorchip was regenerated by a five second injection of appropriate regeneration buffer.

[2] = target: T2, MICA*007 expressed at the cell surface; test: flow cytometry on C1R transfectant cells, 4-parameter logistic fit
Protocol: (§2) The binding of antibodies obtained from the first, second and third immunization series (including CHG1-M-MIA-19E9, CHG1-M-MIA-9C10, CHG1-M-MIA-6E4, CHG1-M-MIA-20C6, CHG1-M-MIA-16A8, CHG1-M-MIA-12A10, CHG1-M-MIA-10A7, CHG1-M-MIA-18E8, CHG1-M-MIA-10F3, CHG1-M-MIA-15F9 and CHG1-M-MIA-14B4) were tested for binding to MICA-expressing CR1 transfectant cells C1R-MICA*001, C1R-MICA*004, C1R-MICA*007 and C1R-MICA*008 (Pr. A. Steinle, Eberhard-Karls University Tuebingen, Germany) described in Salih et al. (2003) Blood 102(4): […]. Binding was analyzed by flow cytometry.
(§3) Cells were harvested and stained in PBS 1×/BSA 0.2%/EDTA 2 mM buffer during 30 minutes at 4° C. using a dose-range of the anti-MICA mAbs. After two washes in staining buffer, cells were stained for 30 min at 4° C. with mouse anti-human IgG1-PE monoclonal antibodies (1/11). After two washes, stainings were acquired on a BD FACS Canto II and analyzed using the FlowJo software.
(§4) Antibodies CHG1-M-MIA-19E9, CHG1-M-MIA-9C10, CHG1-M-MIA-6E4, CHG1-M-MIA-20C6, CHG1-M-MIA-12A10, CHG1-M-MIA-10A7, CHG1-M-MIA-18E8, CHG1-M-MIA-10F3, and CHG1-M-MIA-15F9 bound to each of the C1R-MICA*001, C1R-MICA*004, C1R-MICA*007 and C1R-MICA*008 cells (see FIG. 1A for antibodies CHG1-M-MIA-19E9, CHG1-M-MIA-9C10, CHG1-M-MIA-6E4, CHG1-M-MIA-20C6, CHG1-M-MIA-12A10, CHG1-M-MIA-10F3, and FIG. 1B for antibodies, CHG1-M-MIA-18E8, CHG1-M-MIA-15F9, CHG1-M-MIA-10A7). […] EC50 values are shown in Table C in μg/ml (calculated using a 4-parameter logistic fit).

[3] = target: T3, MICA*004 expressed at the cell surface; test: as above
Protocol: as §2, §3, §4

[4] = target: T4, MICA*001 expressed at the cell surface; test: as above
Protocol: as §2, §3, §4

[5] = target: T5, MICA*008 expressed at the cell surface; test: as above
Protocol: as §2, §3, §4

MICA*001-BirA = target: T6, MICA*001-BirA; test: SPR single cycle kinetics, monovalent mean KD at pH 7.4, antibody captured on Protein-G chip, MICA-BirA injected
Protocol: For monovalent affinity measurement, chimeric anti-MICA antibodies were captured onto a Protein-G chip.
Affinities were determined using single cycle kinetics (SCK). SCK cycles were as follows: Successive 120s injections at 30 μl/min of 5 serial dilutions (0.01 to 100 nM) of MICA-His or MICA-BirA in ascending order (or of buffer for the blank injections to be subtracted during the analysis). After the last concentration is injected, complex is left to dissociate for 600s before regeneration by a 10s injection of appropriate regeneration buffer at 40 μl/min. After the regeneration, chip is left to stabilise for 60s in running buffer. Curves are fitted using Biacore T100 Evaluation software.

[6] = target: T7, human ULBP-2-Fc (R&D systems); test: SPR, antibody injected over immobilized ULBP-2-Fc
Protocol: as §1

[7] = target: T8, human ULBP-1-Fc (R&D systems); test: SPR, antibody injected over immobilized ULBP-1-Fc
Protocol: as §1

[8] = target: T9, human ULBP-3-Fc (R&D systems); test: SPR, antibody injected over immobilized ULBP-3-Fc
Protocol: as §1

binding result [1]	EC50 [2] [µg/mL]	EC50 [3] [µg/mL]	EC50 [4] [µg/mL]	EC50 [5] [µg/mL]	Kd (MICA*001-BirA) [nM]	binding result [6]	binding result [7]	binding result [8]	Binder
binds	0.3	0.15	0.5	0.24	54				CHG1-M-MIA-18E8 (antibody, human IgG1, V domains shown, the VH entry ends with ASTK) VH: DVQLQESGPDLVNPSQSLSLICTVTGYSITSDYSWHWIRQFPGNKLEWMGNIHYSGRINYNPSLRSRISITRDTSKNQFFLQLISVTTEDTATYYCATRRTFGNFEDYWGQGTTLTVSS VL: QIVLSQSPATLSVSPGEKVTMTCRSSSSVNYMHWYQQKPGSSPKPWIYATSTLASGVPARFSGSGSGTSYSLTISRVEAEDAATYYCQQWSSNPLTFGAGTKLELK
binds	1.81	0.43	0.68	0.79	61				CHG1-M-MIA-15F9 (antibody, human IgG1, V domains shown, the VH entry ends with ASTK) VH: DVQLQESGPDLVKPSQSLSLTCTVTGYSITSGYSWHWIRQFPGNKLEWMGFIHYSGSTDYNPSLKSRISLTRDTSKNQFFLQLNSVSTEDTATYYCAKDYGHWYFDVWGAGTTVTVSS VL: SIVMTQTPKFLLVSAGDRVTITCKASQSVSYDVAWYQQKPGQSPKLLIFYASNRYTGVPARFTGSGYGTDFTFTISTVQAEDLAVYFCQQDYSSLTFGAGTKLELK
						no binding (tested: 10 µg/ml)	no binding (tested: 10 µg/ml)	no binding (tested: 10 µg/ml)	CHG1-M-MIA-19E9 (antibody, human IgG1, V domains shown, also called chimeric anti-MICA 19E9) VH: DVQLQESGPGLVKPSQSLSLTCTVTGYSITSDYAWNWIRQFPGNKLEWMGFVSYSGTTKYNPSLKSRISITRDTSENQFFLQLNSVTSEDTATYYCARGYGFDYWGQGTTLTVSS VL: EIVLTQSPTTMAASPGEKITITCSATSSISSIYFHWYQQRPGFSPKLLIYRTSNLASGVPARFSGSGSGTSYSLTIGTMEAEDVATYYCQQGTTIPFTFGSGTKLEIK
